Measurements from patent publication US7498429B2, “AHAS small subunit promoter” (priority 1998, dated 2009).

Columns and labels:
Format in all cases: biochemical
[1] = biological target: T1, Arabidopsis AHAS large subunit (wild type) (Arabidopsis thaliana, UniProt P17597); experiment: AHAS assay of purified wild type large subunit with added substances
T1 construct: GST (glutathione transferase) (N, cleaved yes); made in house; host or cells: E. coli DH5alpha
T1 sequence (P17597 56-670): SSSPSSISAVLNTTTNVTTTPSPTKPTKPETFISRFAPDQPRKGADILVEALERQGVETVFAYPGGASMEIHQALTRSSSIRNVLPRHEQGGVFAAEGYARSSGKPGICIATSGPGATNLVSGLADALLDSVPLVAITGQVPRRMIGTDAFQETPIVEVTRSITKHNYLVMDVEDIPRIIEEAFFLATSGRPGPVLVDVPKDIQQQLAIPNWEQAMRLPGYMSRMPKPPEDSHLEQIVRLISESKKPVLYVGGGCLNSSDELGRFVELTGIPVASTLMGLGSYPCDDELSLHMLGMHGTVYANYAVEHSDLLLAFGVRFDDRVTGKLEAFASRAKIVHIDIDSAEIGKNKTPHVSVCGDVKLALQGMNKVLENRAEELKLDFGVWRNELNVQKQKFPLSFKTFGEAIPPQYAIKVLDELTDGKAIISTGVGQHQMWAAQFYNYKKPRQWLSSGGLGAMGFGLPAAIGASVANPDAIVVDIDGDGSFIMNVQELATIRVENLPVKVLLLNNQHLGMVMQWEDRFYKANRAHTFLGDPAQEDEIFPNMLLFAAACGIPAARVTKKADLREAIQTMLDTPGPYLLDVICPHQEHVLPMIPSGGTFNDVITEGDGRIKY
Procedure: (§1) AHAS assays. AHAS assays were performed with slight modification as described by Singh et al. {Singh et al., 1988}. AHAS activity was assayed in 1× AHAS assay buffer (50 mM HEPES pH 7.0, 100 mM pyruvate, 10 mM MgCl2, 1 mM TPP, and 50 μM FAD). A final concentration of 1× assay buffer was obtained either by dilution of enzyme extracted in 2× assay buffer or addition of enzyme to make a final concentration 1×AHAS assay buffer. All assays containing imazethapyr and associated controls contained a final concentration of 5% DMSO due to addition of imazethapyr to assay mixtures as a 50% DMSO solution. Assays were performed in a final volume of 250 μL at 37° C. in microtiter plates.
Effects of Dithiothreitol. The effect of dithiothreitol (DTT) in Phosphate Buffered Saline (MTPBS) on AHAS large subunit enzyme activity was measured. Experiments were carried out with or without 3 mM DTT in the purified protein solution of large subunit. The assays were conducted as above. […] Moreover, in the absence of DTT, large subunit activity degraded over the 4 day period (FIG. 6).
Effects of Bovine Serum Albumin. To determine whether the enhancement of the large subunit was specific to the small subunit, another nonspecific control which tested the effects of bovine serum albumin was run. To a fixed amount of large subunit an increasing amount of a 0.25 mg/mil BSA solution was added.
(§2) The following experiments used the small subunit and large subunit proteins purified as described in Example 2 above. The plasmid F1 containing the AHAS small subunit gene from Arabidopsis was expressed in E. coli and partially purified. The protein concentration of the sample was determined and aliquots of increasing concentration were added to a constant amount of purified Arabidopsis large subunit.

[2] = biological target: T2, herbicide-resistant mutant (Met124 His) large subunit Arabidopsis AHAS protein (Arabidopsis thaliana, UniProt P17597, M124H); experiment: AHAS assay of herbicide-resistant mutant large subunit with added small subunit; details: mutant with methionine at position 124 substituted by histidine (FIG. 9)
T2 construct: GST (glutathione transferase) (N, cleaved yes); made in house; host or cells: E. coli DH5alpha
Procedure: as §1, §2
In another experiment, a herbicide-resistant mutant of the large subunit enzyme (substitution mutation at position 124, methionine substituted by histidine) was used.

[3] = biological target: T3, Arabidopsis AHAS large subunit (Arabidopsis thaliana, UniProt P17597); experiment: Stability of AHAS large subunit activity on storage in MTPBS with or without DTT
T3 construct: GST (glutathione transferase) (N, cleaved yes); made in house; host or cells: E. coli DH5alpha
T3 sequence (P17597 56-670): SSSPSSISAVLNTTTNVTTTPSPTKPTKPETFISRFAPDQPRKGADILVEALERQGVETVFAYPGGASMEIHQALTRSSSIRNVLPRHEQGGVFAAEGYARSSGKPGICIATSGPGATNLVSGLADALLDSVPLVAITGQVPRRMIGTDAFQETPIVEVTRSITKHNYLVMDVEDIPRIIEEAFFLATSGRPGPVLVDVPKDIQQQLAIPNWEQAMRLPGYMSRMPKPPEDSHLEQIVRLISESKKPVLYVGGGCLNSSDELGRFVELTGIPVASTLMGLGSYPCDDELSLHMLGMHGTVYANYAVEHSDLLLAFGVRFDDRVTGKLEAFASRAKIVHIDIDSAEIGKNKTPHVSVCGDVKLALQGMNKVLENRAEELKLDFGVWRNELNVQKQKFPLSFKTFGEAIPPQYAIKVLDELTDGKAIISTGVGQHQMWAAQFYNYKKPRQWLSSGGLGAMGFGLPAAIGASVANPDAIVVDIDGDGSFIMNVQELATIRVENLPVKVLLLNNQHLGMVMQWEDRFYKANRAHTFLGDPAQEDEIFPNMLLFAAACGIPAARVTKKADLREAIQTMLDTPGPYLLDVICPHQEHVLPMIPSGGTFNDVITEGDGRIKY
Procedure: The cell pellet from 1 liter of cell culture was resuspended in 10 ml of MTPBS (150 mM NaCl, 16 mM Na2HPO4, 4 mM NaH2PO4), pH 7.3 (Smith and Johnson Gene 67: 31-40, […]) and 100 μg/ml of lysozyme was added. The suspension was adjusted to 5 mM dithiothreitol. Triton X-100 was added to a final concentration of 1% by addition of a 20% Triton X-100 in MTPBS solution. The cells were shaken gently at 30° C. for 15 minutes and were then cooled to 4° C. on ice and sonicated for 8-10 seconds using a microtip probe, duty cycle 70%, output control at maximum for the microtip pulser. The sonicate was centrifuged two times in a J20 rotor, 17,000 rpm, 4° C., 10 minutes, to remove insoluble material. Lysate was added to 150 mg (dry weight) of glutathione agarose (equilibrated and hydrated in MTPBS) and inverted for 30 minutes at 4° C. Agarose was settled by centrifugation at 500 rpm for 5 minutes and was washed with ice cold MTPBS by repeated centrifugation cycles until the A280 of the wash matched that of MTPBS. Agarose was transferred to an appropriate column for elution. Fusion proteins were eluted with 50 mM Tris-HCl, 5 mM reduced glutathione into 1 ml fractions. […]
Effects of Dithiothreitol. The effect of dithiothreitol (DTT) in Phosphate Buffered Saline (MTPBS) on AHAS large subunit enzyme activity was measured. […]

T2 sequence (P17597 56-670 M124H): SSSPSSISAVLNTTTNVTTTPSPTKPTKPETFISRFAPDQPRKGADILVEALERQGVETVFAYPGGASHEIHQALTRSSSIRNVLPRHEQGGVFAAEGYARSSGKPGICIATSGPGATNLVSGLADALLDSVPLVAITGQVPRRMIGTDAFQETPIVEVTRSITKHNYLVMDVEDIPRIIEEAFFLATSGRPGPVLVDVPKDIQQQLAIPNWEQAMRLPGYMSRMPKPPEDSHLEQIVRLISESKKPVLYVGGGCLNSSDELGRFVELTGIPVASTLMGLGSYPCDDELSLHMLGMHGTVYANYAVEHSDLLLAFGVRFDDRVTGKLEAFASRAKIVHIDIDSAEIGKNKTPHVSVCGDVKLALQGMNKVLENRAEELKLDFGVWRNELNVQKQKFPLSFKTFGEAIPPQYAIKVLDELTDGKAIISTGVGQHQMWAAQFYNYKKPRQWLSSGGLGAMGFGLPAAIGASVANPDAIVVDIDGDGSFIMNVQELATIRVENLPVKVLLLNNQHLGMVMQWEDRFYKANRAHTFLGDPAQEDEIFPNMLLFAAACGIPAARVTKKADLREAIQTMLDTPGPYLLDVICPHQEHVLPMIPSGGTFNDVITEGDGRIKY
T2 sequence (Q93YZ7 233-491 P488L, further chain): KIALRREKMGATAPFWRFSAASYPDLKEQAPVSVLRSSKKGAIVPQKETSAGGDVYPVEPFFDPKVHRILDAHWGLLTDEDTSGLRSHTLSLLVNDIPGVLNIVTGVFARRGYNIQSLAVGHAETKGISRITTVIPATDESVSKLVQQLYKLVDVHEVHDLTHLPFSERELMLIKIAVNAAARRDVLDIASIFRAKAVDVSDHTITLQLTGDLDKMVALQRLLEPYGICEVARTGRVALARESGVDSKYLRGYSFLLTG

Arabidopsis small subunit protein: Arabidopsis AHAS small subunit expressed from plasmid F1 in E. coli and partially purified
effect on enzymatic activity of the catalytic large subunit ([1]; increasing small subunit (from plasmid F1) added to constant wild type large subunit (FIG. 8)): enhances the level of enzymatic activity
effect on enzymatic activity of herbicide-resistant form of the large subunit [2]: also enhanced

O[C@H](CS)[C@H](O)CS (racemic) [DTT, dithiothreitol]
effect on catalytic activity of the AHAS large subunit ([1]; 3 mM DTT in MTPBS versus no DTT (FIG. 5 vs FIG. 6)): enhanced dramatically
stabilization and activation of the enzyme compared with other sulfhydryl reductants ([1]; versus reduced glutathione and β-mercaptoethanol): better than reduced glutathione and β-mercaptoethanol

B1: Arabidopsis large subunit: purified wild type Arabidopsis AHAS large subunit protein expressed in E. coli (pAC774) (protein)
chain: SSISAVLNTTTNVTTTPSPTKPTKPETFISRFAPDQPRKGADILVEALERQGVETVFAYPGGASMEIHQALTRSSSIRNVLPRHEQGGVFAAEGYARSSGKPGICIATSGPGATNLVSGLADALLDSVPLVAITGQVPRRMIGTDAFQETPIVEVTRSITKHNYLVMDVEDIPRIIEEAFFLATSGRPGPVLVDVPKDIQQQLAIPNWEQAMRLPGYMSRMPKPPEDSHLEQIVRLISESKKPVLYVGGGCLNSSDELGRFVELTGIPVASTLMGLGSYPCDDELSLHMLGMHGTVYANYAVEHSDLLLAFGVRFDDRVTGKLEAFASRAKIVHIDIDSAEIGKNKTPHVSVCGDVKLALQGMNKVLENRAEELKLDFGVWRNELNVQKQKFPLSFKTFGEAIPPQYAIKVLDELTDGKAIISTGVGQHQMWAAQFYNYKKPRQWLSSGGLGAMGFGLPAAIGASVANPDAIVVDIDGDGSFIMNVQELATIRVENLPVKVLLLNNQHLGMVMQWEDRFYKANRAHTFLGDPAQEDEIFPNMLLFAAACGIPAARVTKKADLREAIQTMLDTPGPYLLDVICPHQEHVLPMIPSGGTFNDVITEGDGRIKY
stability of large subunit activity ([3]; absence of DTT, 4 day period (FIG. 6)): degraded
stability of large subunit ([3]; in the presence of 3 mM DTT, 1 month, stored at 4° C.): very stable
